Test results published in paper PMC3299833 (Molecular Cell, 2012).
Like-named read-outs stand apart in the source and are kept apart here.

B1: HA-R399E (HA-tagged PKM2 mutant R399E expressed in SW480 cells) (enzyme)
chain: not shown
B2: Recombinant PKM2 mutant R399E (enzyme)
chain: not shown

Columns and labels:
[1] = target: the molecule itself; test: SEC
[2] = target: the molecule itself; test: SEC; remark: listed apart in the source

| Protein | stoichiometry N [1] | stoichiometry N [2] |
| --- | --- | --- |
| B1 | 2 | – |
| B2 | – | 2 |
